In the supplement of paper PMC9732359:
± gives the uncertainty stated by the source.

assay: protein stability index of a GFP-peptide fusion (yeast GPS) (PSI 1-4); higher = more stable; sorted into four equal gates, so the index is relative within each strain; conditions: san1∆
How it was run: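 Mid-log yeast cultures in leucine-free medium, carrying a pooled plasmid library, were sorted into four equal gates by their GFP/Cherry fluorescence ratio. Each plasmid expressed Cherry along with GFP fused upstream of a tiled 17-residue yeast protein peptide. Plasmids recovered from each gate were PCR-amplified and Illumina-sequenced, with reads assigned to strains by barcodes. The protein stability index was obtained by summing each gate's read frequency weighted by its gate number.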

**Q.** Which protein stability index does the source give for NEPTQKDEEETEYFENK [DSN1] here?
**A.** The protein stability index was 2.71 ± 0.29.

**Q.** With NERLEINQEKPVKLDEN [SIR4] as the sequence, how does the protein stability index read?
**A.** Its protein stability index is 3.44 ± 0.086.

same assay, conditions: ubr1∆

**Q.** With LYPSFKPIYKDTRFGGR [SSN2] as the sequence, how does the protein stability index read?
**A.** Its protein stability index is 3.41 ± 0.14.

**Q.** For LYSYLIKENFFERIMIL [YJL039C/NUP192], which protein stability index is on record?
**A.** The protein stability index was 1.26 ± 0.11.

**Q.** Which protein stability index does the source give for MAAQKSFRIKQKMAKAK [RPL39] here?
**A.** The protein stability index was 2.74 ± 0.08.

**Q.** With MAFEASAAAAGNRNSSS [BRR2] as the sequence, how does the protein stability index read?
**A.** The protein stability index was 3.14 ± 0.11.

**Q.** For MAGLSFDNYQRNNFLAE [PUP1], which protein stability index is on record?
**A.** The protein stability index was 3.39 ± 0.092.

**Q.** With MAHFKEYQVIGRRLPTE [RPL20A] as the sequence, how does the protein stability index read?
**A.** Its protein stability index is 2.4 ± 0.047.

**Q.** Which protein stability index does the source give for MAKFLKAGKVAVVVRGR [RPL27A] here?
**A.** The protein stability index was 1.54 ± 0.092.

**Q.** For MAKRVADAQIQRETYDS [YLR335W/NUP2], which protein stability index is on record?
**A.** The protein stability index was 2.21 ± 0.1.

**Q.** Which protein stability index does the source give for MANDLVQARDNSQVFGV [RPS14B] here?
**A.** Its protein stability index is 2.97 ± 0.063.

**Q.** Which protein stability index does the source give for MANLSQIYTQRAYMRPL [SCL1] here?
**A.** Its protein stability index is 1.54 ± 0.043.

**Q.** With MAREHAPSIIFMDEIDS [RPT6] as the sequence, how does the protein stability index read?
**A.** Its protein stability index is 2.42 ± 0.059.

**Q.** With MARYGATSTNPAKSASA [RPL17A] as the sequence, how does the protein stability index read?
**A.** The protein stability index was 2.9 ± 0.048.

**Q.** For MASTAVMMDVDSSGVND [RPN3], which protein stability index is on record?
**A.** The protein stability index was 3.26 ± 0.091.

**Q.** With MAYTSHLSSKTGLHFGR [QCR10] as the sequence, how does the protein stability index read?
**A.** Its protein stability index is 2.76 ± 0.066.

**Q.** With MDDEEWRSKRIEQLFPV [RPC53] as the sequence, how does the protein stability index read?
**A.** The protein stability index was 2.37 ± 0.041.

**Q.** With MDLFMSTLGDCLGIKDE [GAL11] as the sequence, how does the protein stability index read?
**A.** The protein stability index was 3.22 ± 0.2.

**Q.** Which protein stability index does the source give for MDNKTPVTLAKVIKVLG [RPS28A] here?
**A.** The protein stability index was 2.55 ± 0.27.

**Q.** For MDRTQTFIKDCLFTKCL [POP4], which protein stability index is on record?
**A.** The protein stability index was 1.94 ± 0.044.

**Q.** Which protein stability index does the source give for MERLQRLMMNSKVGSAD [RPN11] here?
**A.** Its protein stability index is 3.22 ± 0.12.

**Q.** With MEYLKSSKSLDLNTRIS [RPN5] as the sequence, how does the protein stability index read?
**A.** Its protein stability index is 2.61 ± 0.055.

**Q.** For MGGIREKKAEYFAKLRE [RPP0], which protein stability index is on record?
**A.** Its protein stability index is 3.55 ± 0.095.

**Q.** With MGGPKQKGITSYAVSPY [QCR8] as the sequence, how does the protein stability index read?
**A.** The protein stability index was 1.63 ± 0.21.

**Q.** Which protein stability index does the source give for MGGVSALRGMFKDRFKD [FAS2] here?
**A.** Its protein stability index is 3.54 ± 0.069.

**Q.** For MGIVQDTLCGIRKLTLR [RPO21], which protein stability index is on record?
**A.** Its protein stability index is 1.64 ± 0.053.

**Q.** With MGKKTFREWQYFKLSIT [POP8] as the sequence, how does the protein stability index read?
**A.** The protein stability index was 1.71 ± 0.042.

**Q.** For MGKRVDFSARTVISGDP [RPO21], which protein stability index is on record?
**A.** The protein stability index was 3.1 ± 0.19.

**Q.** Which protein stability index does the source give for MGQGLCNNINKGLKEND [BRR2] here?
**A.** Its protein stability index is 3.39 ± 0.1.

**Q.** Which protein stability index does the source give for MHDSNLQNNSDSESDSD [SKP1] here?
**A.** Its protein stability index is 3.02 ± 0.068.

**Q.** Which protein stability index does the source give for MHKQLAYILAAQKTSFE [RPN1] here?
**A.** Its protein stability index is 2.43 ± 0.063.

**Q.** For MHRPVHFLQFSELAGDE [PRP8], which protein stability index is on record?
**A.** The protein stability index was 3.05 ± 0.06.

**Q.** With MIIDEGHRMKNAQSKLS [SNF2] as the sequence, how does the protein stability index read?
**A.** The protein stability index was 1.93 ± 0.089.

**Q.** For MINGVYYNEISRDLDIS [POP6], which protein stability index is on record?
**A.** Its protein stability index is 1.76 ± 0.12.

**Q.** For MIVPVRCFSCGKVVGDK [RPB10], which protein stability index is on record?
**A.** The protein stability index was 2.66 ± 0.092.

**Q.** With MKYAVSKTSENKVSNTV [SIR2] as the sequence, how does the protein stability index read?
**A.** Its protein stability index is 2.98 ± 0.052.

**Q.** Which protein stability index does the source give for MLRRHAAPPSTNFEILN [DIS3] here?
**A.** The protein stability index was 2.93 ± 0.074.

**Q.** For MMVNISVLISIPLDNYD [PCI8], which protein stability index is on record?
**A.** Its protein stability index is 1.41 ± 0.037.

**Q.** Which protein stability index does the source give for MNVSTSTFQTRRRRLKK [RPB4] here?
**A.** The protein stability index was 3.38 ± 0.14.

**Q.** With MNYLLDNKINEIKLLEI [CSI1] as the sequence, how does the protein stability index read?
**A.** The protein stability index was 2.89 ± 0.091.

**Q.** With MPNDNKTPNRSSTPKFT [SIR4] as the sequence, how does the protein stability index read?
**A.** Its protein stability index is 3.09 ± 0.086.

**Q.** Which protein stability index does the source give for MPQSFTSIARIGDYILK [QCR7] here?
**A.** The protein stability index was 3.1 ± 0.062.

**Q.** Which protein stability index does the source give for MPYTINELLEMVGLASG [BRR2] here?
**A.** Its protein stability index is 2.52 ± 0.031.

**Q.** For MQKHGYIGEFEYIDDHR [RPS22A], which protein stability index is on record?
**A.** The protein stability index was 3.24 ± 0.093.

**Q.** With MQSTSPAVKQWDLLPEP [SWI1] as the sequence, how does the protein stability index read?
**A.** The protein stability index was 1.07 ± 0.14.

**Q.** For MRELGLIQSTEFPSITS [YOR098C/NUP1], which protein stability index is on record?
**A.** The protein stability index was 3.17 ± 0.078.

**Q.** For MRILPRETDPLVYNMTS [RPT4], which protein stability index is on record?
**A.** Its protein stability index is 2.73 ± 0.057.

**Q.** With MSAAPVQDKDTLSNAER [GAL11] as the sequence, how does the protein stability index read?
**A.** The protein stability index was 3.04 ± 0.079.

**Q.** Which protein stability index does the source give for MSAKAQNPMRDLKIEKL [RPL11A] here?
**A.** The protein stability index was 3.61 ± 0.24.

**Q.** For MSAPEAQQQKRGGFGGR [RPS2], which protein stability index is on record?
**A.** Its protein stability index is 3.33 ± 0.17.
